B1: anti-FLT3 antibody 17679 (antibody, human IgG1, kappa, L234A L235A, V domains shown)
VH: QVQLQESGPGLVKPSQTLSLTCTVSGGSISSGGYYWSWIRQHPGKGLEWIGYIYYSGRTNYNPSLKSRVTISEDTSKNQFSLKVSSVTAADTAVYYCARDQDGSGWYFDYWGQGALVTVSS
VL: EIVLTQSPATLSLSPGERATLSCRASQSVSSYLAWYQQKPGQAPRLLIYDASNRATGIPARFSGSGSGTDFTLTIRSLEPEDFAVYYCQQRSNWWTFGQGTKVEIKR
notes: Human IgG1-LALA / kappa
B2: anti-FLT3 antibody 17566 (antibody, human IgG1, kappa, L234A L235A, V domains shown)
VH: QVTLKESGPVLVKPTETLTLTCTVSGFSFNNARMGVNWIRQPPGKALEWLAHIFSNDEKSYSTSLKSRLTISKDISKSQVVLTMTNMDPVDTATYYCARIVGYGSGWRLLGDYWGQGTLVTVSS
VL: AIQMTQSPSSLSASVGDRVTITCRASQGITNDLGWYQQKPGKAPKLLIYAASSLQSGVPSRFSGSGSGTDFTLTISSLQPEDFATYYCLQDYNYPWTFGQGTKVEIKR
notes: Human IgG1-LALA (L234A/L235A) / kappa, germline-corrected variable domains
B3: anti-FLT3 antibody 17497 (antibody, human IgG1, kappa, L234A L235A, V domains shown)
VH: QVQLQESGPGLVKPSGTLSLTCAVSGGSISSTNWWSWVRQPPGKGLEWIGEISHRGSTNYNPSLKSRVTISVDKSKNQFSLKLSSVTAADTAVYYCARDPEMTLYYYYGMDVWGQGTTVTVSS
VL: B2 VL with A1D, Q27R, T30R, L46R, D70E, D91H, Y92N, N93S, W96L, Q100G
notes: Human IgG1-LALA / kappa
B4: anti-FLT3 antibody 17526 (antibody, human IgG1, kappa, L234A L235A, V domains shown)
VH: QVTLKESGPVLVKPTETLTLTCTISGFSLGNARMGVSWIRQPPGKALEWLAHIFSNDEKSYSTSLKSRLTISKDTSKSQVVLTMTNMDPVDTATYYCARIVGYVDWLLPFDYWGQGTLVTVSS
VL: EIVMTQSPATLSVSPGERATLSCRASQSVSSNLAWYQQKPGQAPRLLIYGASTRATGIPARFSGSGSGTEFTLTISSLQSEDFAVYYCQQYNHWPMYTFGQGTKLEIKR
notes: Human IgG1-LALA / kappa
B5: anti-FLT3 antibody 17667 (antibody, human IgG1, kappa, L234A L235A, V domains shown)
VH: B4 VH with I24V, G30S, K59R, T63P, D74G
VL: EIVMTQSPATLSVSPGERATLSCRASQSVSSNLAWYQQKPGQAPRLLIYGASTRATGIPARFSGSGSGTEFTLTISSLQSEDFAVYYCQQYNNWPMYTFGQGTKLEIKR
notes: Human IgG1-LALA / kappa
B6: anti-FLT3 antibody 17543 (antibody, human IgG1, kappa, L234A L235A, V domains shown)
VH: QVTLKESGPVLVKPTETLTLTCTVSGFSLINARMGVTWIRQPPGKALEWLAHIFSNDEKSYSTSLKSRLTISKDTSKSQVVLTMTNMDPVDTATYYCARIPGYSRGWDYYYYGMDVWGQGTMVTVSS
VL: B2 VL with A1D, T30R, L46R, S53T, D70E, D91H, Y92N, N93S
notes: Human IgG1-LALA / kappa

Numbering of substitutions follows the chain as printed. Numbers in names are those of the source.

The term EC50 (read off the curve) denotes the concentration giving half of the maximal effect.

T2 sequence (Q00342 28-1000): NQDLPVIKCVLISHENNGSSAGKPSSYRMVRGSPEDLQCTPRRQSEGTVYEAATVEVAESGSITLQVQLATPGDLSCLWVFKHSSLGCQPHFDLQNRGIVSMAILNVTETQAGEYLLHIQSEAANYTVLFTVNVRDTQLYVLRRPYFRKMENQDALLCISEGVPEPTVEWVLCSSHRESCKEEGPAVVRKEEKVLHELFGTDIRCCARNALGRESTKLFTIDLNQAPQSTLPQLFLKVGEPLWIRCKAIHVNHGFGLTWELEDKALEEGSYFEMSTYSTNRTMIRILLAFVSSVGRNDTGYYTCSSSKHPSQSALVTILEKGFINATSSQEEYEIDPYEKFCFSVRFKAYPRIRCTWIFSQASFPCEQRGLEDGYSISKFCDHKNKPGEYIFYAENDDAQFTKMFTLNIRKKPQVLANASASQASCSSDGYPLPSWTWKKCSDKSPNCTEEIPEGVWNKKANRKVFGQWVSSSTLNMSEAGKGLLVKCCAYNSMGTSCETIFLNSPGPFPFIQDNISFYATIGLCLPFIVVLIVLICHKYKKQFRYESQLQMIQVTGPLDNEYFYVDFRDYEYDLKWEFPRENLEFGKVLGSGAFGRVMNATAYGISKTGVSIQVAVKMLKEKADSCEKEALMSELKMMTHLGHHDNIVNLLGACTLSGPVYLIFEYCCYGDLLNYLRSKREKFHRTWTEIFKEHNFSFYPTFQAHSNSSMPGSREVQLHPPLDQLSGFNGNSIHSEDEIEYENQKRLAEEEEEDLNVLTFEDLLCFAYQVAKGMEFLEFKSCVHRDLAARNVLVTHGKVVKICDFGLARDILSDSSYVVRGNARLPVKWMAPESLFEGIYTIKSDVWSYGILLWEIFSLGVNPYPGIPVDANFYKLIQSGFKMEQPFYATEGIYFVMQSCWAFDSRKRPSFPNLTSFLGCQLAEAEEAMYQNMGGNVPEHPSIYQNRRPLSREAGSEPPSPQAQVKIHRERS

The first assay concerns the target T1, recombinant human FLT3 ECD his-tagged fusion receptor (Sino Biological) (human, UniProt P36888 27-543).
T1 construct: Bought protein; also called FLT3-his; His-tagged FLT3; not shown: His tag
Put plainly: bio-layer interferometry (Octet QK384); FLT3-his immobilized on anti-penta-HIS (HIS1K) biosensor; 500 nM antibody, 600 s association. (Biolayer interferometry detects binding as a change in optical thickness at a sensor tip.)
On to B1, for which the binding result was “binds”.

B2: the binding result is listed as “binds”.

Turning to B3, the binding result is recorded as “binds”.

On to B4, for which the binding result is on record as “binds”.

For the molecule B5, the binding result is on record as “binds”.

A further assay has as its target T2, mouse FLT3 expressed on CHO-S cells (mouse, UniProt Q00342 28-1000).
T2 construct: whole, on cells
Put plainly: flow cytometry (iQue Screener PLUS) on CHO-S cells transiently expressing mouse FLT3; AF647 anti-human IgG (H+L) secondary; GeoMean RL1-H. For orientation: In flow cytometry, cells or beads pass a laser one at a time.
Method: (§1) The anti-FLT3 antibodies were incubated with the hamster CHO-S cell line transiently expressing human, cynomolgus or mouse FLT3 for 30 minutes at 4° C. The cells were washed twice and subsequently incubated for an additional 20 minutes with AF647-conjugated secondary anti-human IgG (H+L) antibody. After the washing step, antibody binding was detected using the high-throughput flow cytometer iQue Screener PLUS (Sartorius) measuring the GeoMean of AF647 signal in each well. Every concentration was assayed in triplicate and a 12-point titration curve was generated for each antibody.
As to B1, the binding result is “no binding”.

For the molecule B2, the binding result is reported as “no binding”.

On to B6, for which the binding result is “no binding”.

For the molecule B4, the binding result is recorded as “no binding”.

As for B5, the binding result is recorded as “no binding”.

For another assay, the target named is T3, human FLT3 expressed on cells (human, UniProt P36888 27-993).
T3 construct: endogenous on EOL-1 cells and primary CD34+ stem cells in the functional rows; also called CD135
Put plainly: flow cytometry (iQue Screener PLUS) on CHO-S cells transiently expressing human FLT3; AF647 anti-human IgG (H+L) secondary; GeoMean RL1-H; 12-point titration.
Method: as §1
Consider B1, for which the binding result is on record as “binds”.

For B2, the binding result is listed as “binds”.

In the case of B6, the “EC50 (read off the curve)” value is roughly 0.03 µg/mL.

With B3, the binding result was “binds”.

B4: the binding result is “binds”.

In the case of B5, the binding result is “binds”.

Another assay has as its target T2, mouse FLT3 expressed on CHO-S cells. Briefly: flow cytometry (iQue Screener PLUS) on CHO-S cells transiently expressing mouse FLT3; AF647 anti-human IgG (H+L) secondary; GeoMean RL1-H; 12-point titration.
Method: as §1
On to B3, for which the half-maximal effective concentration (EC50 (read off the curve)) was roughly 0.01 µg/mL.

In a further assay the target is T4, cynomolgus FLT3 expressed on CHO-S cells (cynomolgus, UniProt A0A2K5VQ48 27-993).
T4 construct: whole, on cells
Briefly: flow cytometry (iQue Screener PLUS) on CHO-S cells transiently expressing cynomolgus FLT3; AF647 anti-human IgG (H+L) secondary; GeoMean RL1-H; 12-point titration.
Method: as §1
Take B1: the 50% effective concentration (EC50 (read off the curve)) is roughly 0.04 µg/mL.

For the molecule B2, the half-maximal effective concentration (EC50 (read off the curve)) was roughly 0.03 µg/mL.

For B6, the concentration for a half-maximal effect (EC50 (read off the curve)) is roughly 0.04 µg/mL.

In the case of B3, the “EC50 (read off the curve)” value was roughly 0.01 µg/mL.

As for B4, the half-maximal effective concentration (EC50 (read off the curve)) is roughly 0.02 µg/mL.

As to B5, the “EC50 (read off the curve)” value is roughly 0.02 µg/mL.

(Values after US20250179195A1 (LES LABORATOIRES SERVIER, published 2025).)
